# Assay results taken from patent US20220348674A1 (APOLLOMICS, published 2022).
# Numbering of substitutions follows the chain as printed.
# B1: 7D2 rabbit-human chimeric anti-CD40 antibody (antibody, V domains shown)
# VH: QSVEESGGRLVTPGTPLTLTCTVSGFSLNNYYMGWVRQAPGKGLEYIGWITSGRIAAYANWAKGRFTISKTSTTVDLKITSPTIGDTATHFCATTTTSDAYFFPRLGLWGQGTLVTVSS
# VL: AVLTQTPSPVSAAVEGTVTINCQSSQSVDNNRLSWFQQKPGQPPKLLIYDASTLASGVPPRFKGSGSGTQFTLTISDVQCDDAATYYCAGGYSFPSENAFGGGTEVVVK
# notes: tested as cell culture supernatant
# B2: 7C11 rabbit-human chimeric anti-CD40 antibody (antibody, V domains shown)
# VH: QSLEESGGRLVTPGGSLTLTCTVSGIDLSTNGMGWVRQGPGKGLEWIGTIRVTAGTDYANWAKGRFTISKTSSTTVDLKMTSLTTEDTATYFCARGHANNDAYVYFNLWGQGTLVTVSS
# VL: AFELTQTPASVEAGVGGTVTIKCQASQSIDRYLAWYQQKSGQPPKLLISYTSKLASGVPSRFKGSGSGTEFTLTISDLECADAATYYCQSYFTSDDANSFGGGTEVVVK
# notes: as for B1
# B3: 8C10 rabbit-human chimeric anti-CD40 antibody (antibody, V domains shown)
# VH: B2 VH with E4A, N31D, A54G, Y58F, N60T, S69A
# VL: AFELTQTPASVEAGVGGTVTIKCQASQSIDRYLAWYQQKPGQPPKLLMAAAANLASGVPSRFKGSRSGTEFTLTISDLECADGATYYCQSYFTSDDGNTFGGGTEVVVK
# notes: as for B1
# B4: 7G6 rabbit-human chimeric anti-CD40 antibody (antibody, V domains shown)
# VH: B2 VH with A54G, N60T, L83P
# VL: B2 VL with S40P, K53T, A55T, S99T
# notes: as for B1
# B5: 7H11 rabbit-human chimeric anti-CD40 antibody (antibody, V domains shown)
# VH: QSVEESGGRLVTPGTPLTLTCTVSGIDFSKYWMAWVRQAPGEGLEYIGILSTTGSTYYASWAKGRFTISKTSTTVDLKITSLTTEDTATYFCARGNYIGNGYTWDIWGPGTLVTVSS
# VL: DPVLTQTPSSASEPVGGTVTIKCQASQSIGSYLAWYQQKPGQPPKLLIYSPSTLASGVSSRFKGSRSGTEFTLTISDLECADAATYYCQSTAVGITFGGGTEVVVK
# notes: as for B1
# B6: 6E1 rabbit-human chimeric anti-CD40 antibody (antibody, V domains shown)
# VH: QSVEESGGRLVTPGTPLTLTCTVSGFSLSSYAMTWVRQAPGKGLEWLGIIDTIGSTYYASWAKGRFTISKTSTTVDLKITSPTTEDTATYFCVRDYIGSTSGKKLWGRGTLVTVSS
# VL: AVLTQTPSSVEAAVGGTVSISCQSSKSVYYKNWLAWYQQKPGQPPKLLIYGASTLASGVPSRFKGSGSGAQFTLTISDVQCDDAATYYCAGGYSSDSDTGFGGGTEVVVK
# notes: as for B1
# B7: 6H9 rabbit-human chimeric anti-CD40 antibody (antibody, V domains shown)
# VH: QSLEESGGRLVTPGTPLTLTCTVSGIDLSSYAMGWVRQAPGKGLEYIGVIASNSGISYYATWAEGRFTISKASTTVDLKITSPTTEDTATYFCVRGYIGDGALWGPGTLVTVSS
# VL: B6 VL with E11S, S19T, S21N, S27T, K31N, G51R, A70T, A85T, Y93F, G100T
# notes: as for B1
# B8: 3B12 rabbit-human chimeric anti-CD40 antibody (antibody, V domains shown)
# VH: B7 VH
# VL: B6 VL with E11S, S19T, S21N, S27T, K31N, G51R, A70T, A85T, Y93F, G100T
# notes: as for B1
# B9: 2B8 rabbit-human chimeric anti-CD40 antibody (antibody, V domains shown)
# VH: B7 VH
# VL: B6 VL with E11S, S19N, S21G, K31N, G51R, A70T, D82A, A85T, G100T
# notes: as for B1
# B10: 198 rabbit-human chimeric anti-CD40 antibody (antibody, V domains shown)
# VH: QSVKESEGGLFKPTDTLTLTCTVSGFSLGSYTMAWVRQAPGNGLEYIGTIDSSGSADYASWAQSRSTITRNTNLNTVTLKMTSLTAADTATYFCARPTNYEYTWALNIWGPGTLVTVSS
# VL: DVVMTQTPASVSEPVGGTVTIKCQASQTIYSYLAWYQQKPGQPPKLLIYGASKLASGVPSRFSGSRSGTEFTLTISDLECADAATYYCQCTGYDSAYVYNDFGGGTEVVVK
# notes: as for B1
# B11: 5D10 rabbit-human chimeric anti-CD40 antibody (antibody, V domains shown)
# VH: QSVEESGGRLVTPGTPLTLTCTVSGFSFYDHTMIWVRQAPGKGLEYIGFINIGGRAYYASWAKGRFTISRTSTTVDLEMTSLTTEDTATYFCARGDTHGYSYPEIWGPGTLVTVSS
# VL: DIVMTQTPASVEAGVGGTVTIKCQASQTIYSYLSWYQQKPGQPPKLLIYRASTLASGVPSRFRGSGSGTEFTLTISDLECADAAAYYCQNYYDSTSSNAFGKGTEVVVK
# notes: as for B1
# B12: 192 rabbit-human chimeric anti-CD40 antibody (antibody, V domains shown)
# VH: QSVEESGGRLVTPGTPLTLTCTVSGFSLSSYAMNWVRQAPGKGLEYTGMIATGGKTFYAGWAEGRFTISKTSTTVDLHIASLTTEDTATYYCARGYVGDIYFGFWGPGTLVTVSS
# VL: AVLTQTPSPVSAGVGGTVTISCQSSKSVYYNTHLSWFQQKPGQPPKLLIYRASTLASGVPSRFKGSGSGTQFTLTISDVQCDDAATYYCAGGYANDVDNGFGGGTEVVVK
# notes: as for B1
# B13: 195 rabbit-human chimeric anti-CD40 antibody (antibody, V domains shown)
# VH: B12 VH with T47I
# VL: B12 VL with S35P
# notes: as for B1
# B14: 8C6 rabbit-human chimeric anti-CD40 antibody (antibody, V domains shown)
# VH: QSVEESGGRLVTPGTPLTLTCTASGFTITSYYIIWVRQAPGEGLEYIGIIDTGGSADYASWAKGRFTISRTSTTVDLKMTSLTTEDTATYFCARADVGSVGSIWGPGTLVTVSS
# VL: DVAMTQTPSSVSAAVGGTVTIECQASQNIYTNLAWYQQKPGQRPKLLIYYASTLASGVPSRFSGSGSGTEFSLTISDLECADAATYYCQCTYIKWRHVCGFGGGTEVVVK
# notes: as for B1
# B15: 5F9 rabbit-human chimeric anti-CD40 antibody (antibody, V domains shown)
# VH: QSVEESGGRLVTPGTPLTLTCTASGFSLIGYVMGWFRQAPGKGLEYIGWISFGGDPYYASWVKGRFTISKTSTTVDLKMTSLTTEDTATYFCARSTYGDIWGPGTLVTVSS
# VL: DIVMTQTPASVEAAVGGTVTIKCQASQSISSRLAWYQLKPGQPPKLLIYSASTLASGVPSRFKGSGSGTEFTLTISDLECADAATYYCQNHGYATSESYTNTFGGGTEVVVK
# notes: tested as cell culture supernatant in the ELISA
# B16: 6C2 rabbit-human chimeric anti-CD40 antibody (antibody, V domains shown)
# VH: QSVEESGGRLVTPGTPLTLTCTASGFSLSTYYMIWVRQAPGKGLDYIGIISSNGNAYYATWAKGRFTISKTSTTVDLKMTSPTTEDTATYFCARAASIANSYYFNVWGPGTLVTVSS
# VL: AVLTQTPSPVSAAVGGTVSISCQSSQSVRDNNWLSWFQQKPGHPPKLLIYGASNLESGVPSRFSGSGSGTEFTLTISDVQCDDAATYYCQGGFSTYSDNSFGGGTEVVVK
# notes: as for B1
# B17: 194 rabbit-human chimeric anti-CD40 antibody (antibody, V domains shown)
# VH: QSVEESGGRLVTPGTPLTLTCTVSGFSLSSYAMSWVRQAPGKGLEYIGVMNTGGSAHYATWAKGRFTISKTSTTVDLKITSPTTADTATYFCARGYIGSPNLWGPGTLVTVSS
# VL: AVLTQTPSPVSAAVGGTVSISCQSSKSVYYNNYLSWFQQKPGQPPKQLIYLASTLASGVPSRFKGSGSGTEFTLTISDVQCADAATYYCAGGYTDSDDAFGGGTEVVVK
# notes: as for B1
# B18: 197 rabbit-human chimeric anti-CD40 antibody (antibody, V domains shown)
# VH: QEQLKESGGGLVTPGTALTLTCTASGSDISSYAMNWVRQAPGKGLEYIGVITSSGTIYYANWATGRFTISKASSTTVDLKTTRLTTEDTATYFCARGITGAVTTGLSLWGPGTLVTVSS
# VL: DVVMTQTPPSVSEPVGGTVTIKCQASQNIYNNLAWYQQTPGQPPKLLGYAASNLASGVSSRFSGSGYGTEFTLTISDLECADAATYYCLGGYYGNNVGNTFGGGTEVVVK
# notes: as for B1
# B19: 196 rabbit-human chimeric anti-CD40 antibody (antibody, V domains shown)
# VH: QSVEESGGRLVTPGTPLTLTCTVSGFSLSAYAIHWVRQAPGKGLEYIGIIDAGGNIVYATWALGRFTISKTSTTVDLKITSPTTEDTATYFCGRGLSSYSNSAMDLWGPGTLVTVSS
# VL: DVVMTQTPASVSEPVGGTVTMKCQASQNIYTYLAWYQQKPGRPPKLLIYQASTLASGVSSRFSGSGSGTEFTLTISDLECADAATYYCQSTAGNAYNAFGGGTEVVVK
# notes: as for B1
# B20: 2E11 rabbit-human chimeric anti-CD40 antibody (antibody, V domains shown)
# VH: QSLEESGGRLVTPGTPLTLTCTVSGIDLSRYAMGWVRQAPGKGLEFIGIITSNSGDTYYATWAKGRFTISKTSTTVDLKITSPTTEDTATYFCVRGYIGAPNLWGPGTLVTVSS
# VL: AVLTQTPSPVSAAVGGTVSISCQSSKTVYYNNYLSWFQQKPGQPPKELIYYASTLSSGVPSRFKGSGSGTQFTLTISDVQCDDAATYYCAGGYNSDSDNTFGGGTEVVVK
# notes: as for B15
# B21: 1D3 rabbit-human chimeric anti-CD40 antibody (antibody, V domains shown)
# VH: QSLEESGGRLVTPGTPLTLTCTASGFSLSNYHMCWVRQAPGKGLEWIGYNSYGGSAYYASWAKGRFTISKTSTTVDLKITRPTTEDTATYFCARAYLDYNGDMGFALWGPGTLVTVSS
# VL: EVVMTQTPSSVSAAVGGTVTFKCQASQSISSYLSWYQQKPGQPPKLLIYRASTLESGVPSRFKGSGSGTQFTLTISDLECADAATYYCQTNYYDSGNTYGTFGGGTEVVVK
# notes: as for B1
# B22: 6G8 rabbit-human chimeric anti-CD40 antibody (antibody, V domains shown)
# VH: QSVEESGGRLVTPGTPLTLTCTASGFSLSTYYMTWVRQAPGKGLEAIGYINTGGSTYYASRAKGRFTISKTSTTVDLKMTSPTTEDTATYFCARADASEHNYNGLNIWGPGTLVTVSS
# VL: DIVMTQTPASVSEPVGGTVTIKCQASESISSNLAWYQQKPGQPPKFLIYRASTLASGVPSRFKGSGFGTQFTLTISDLECADAATYYCQSNYGSISSSYGNAFGGGTEVVVK
# notes: as for B1
# B23: 7A6 rabbit-human chimeric anti-CD40 antibody (antibody, V domains shown)
# VH: QSVEESGGRLVTPGTPLTLACTVSGIDLSTWTMSWVRQAPGKGLEWIGIINSDSNTYYASWAKGRFTISKASTTVDLKMTSLTTEDTATYFCARGVGGYSSGPDYLDIWGPGTLVTVSS
# VL: DIVMTQTPASVEAAVGGTVTIKCQASQSIYRSLAWYQQKPGQPPKLLMYHASDLASGVPSRFKGSGSGTEYTLTISDLECADAATYYCQSYYYSGINTYGNAFGGGTEVVVK
# notes: as for B1
# B24: 2C10 rabbit-human chimeric anti-CD40 antibody (antibody, V domains shown)
# VH: QSLEESGGRLVTPGTPLTLTCTASGFTMNRYRMSWVRQAPGKGLEWIGTINNDAGASYASWVNGRFTISKTSSTTVDLKITGPTTEDTATYFCARAGDNIYVDLYNLWGPGTLVTVSS
# VL: DVVMTQTPASVSGAVGGTVTIKCQASENIFSYLAWYQQKPGQPPKLLFYGASNLASGVPSRFSGSRSGTEFTLTISDLECADAATYYCQFTNYGSSDIRSPFGGGTEVVVK
# notes: as for B1
# Target: T1, purified recombinant human CD40 protein (human, UniProt P25942 21-193)
# T1 construct: also called recombinant CD40
# T1 sequence (P25942 21-193 limits assumed): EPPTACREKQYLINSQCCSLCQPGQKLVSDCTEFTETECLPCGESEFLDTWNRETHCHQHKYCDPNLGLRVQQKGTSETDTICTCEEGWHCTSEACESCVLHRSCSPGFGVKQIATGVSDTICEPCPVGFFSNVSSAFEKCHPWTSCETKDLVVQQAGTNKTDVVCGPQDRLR
# Assay: ELISA on coated recombinant human CD40; chimeric antibody supernatant
# Method: ELISA plate was coated with purified recombinant CD40 protein in coating buffer at lug/ml overnight. After washed for 3 times, the plate was blocked with 1% BSA, and then cell culture supernatants containing rabbit-human chimeric CD40 antibodies were added to the plate. For detection of the antibody binding to CD40 protein, goat anti-human Fc polyclonal antibody conjugated to alkaline phosphatase was used.
row,OD405,Binder
1,1.82 OD405,B1
2,1.8 OD405,B2
3,2.09 OD405,B3
4,1.82 OD405,B4
5,1.46 OD405,B5
6,1.82 OD405,B6
7,1.97 OD405,B7
8,1.57 OD405,B8
9,1.64 OD405,B9
10,1.8 OD405,B10
11,0.98 OD405,B11
12,2 OD405,B12
13,1.84 OD405,B13
14,1.97 OD405,B14
15,1.83 OD405,B15
16,1.96 OD405,B16
17,1.69 OD405,B17
18,2.01 OD405,B18
19,1.92 OD405,B19
20,1.79 OD405,B20
21,1.51 OD405,B21
22,1.77 OD405,B22
23,1.99 OD405,B23
24,2.14 OD405,B24
